Each block holds one binder with its values, some of them ahead of it.
Target: T1, human serum albumin (HSA) (human, UniProt P02768 25-609)
T1 construct: also called human albumin; Albiomin 20%
Experiment: FVIII antigen ELISA on plasma samples; albumin binding inferred from reduced detection

binding result: binds
B1: AD2CD2-19M_SC (other)
chain: ATRRYYLGAVELSWDYMQSDLGELPVDARFPPRVPKSFPFNTSVVYKKTLFVEFTDHLFSIAKPRPPWMGLLGPTIQAEVYDTVVITLKNMATHPVSLHAVGVSYWKASEGAEYDDQTSQREKEDDKVFPGGSHTYVWQVSKENGPMASDPQCLTYSYLSHVDLAKDLNSGLIGALLVCREGSLAKEKTQTLHKFILLFAVFDEGKSWHSETKDSLMQDRDAASARAWPKMHTVNGYVNRSLPGLTGCHRKSVYWHVIGMGTTPEVHSIFLEGHTFLVRDHRQASLEISPITFLTAQTLLMDLGQFLLFCHISSHQHDGMEAYVKVDSCPEEPQLRMKNNEEAEDYDDDLTDSEMDVVRFDDDNSPSFIQIRSVAKKHPKTWVHYIAAEEEDWDYAPLVLAPDDRSHKSQYLNNGPQRIGRKYKKVRFMAYTDETFKTREAIQHESGILGPLLYGEVGDTLLIIFKNQASRPYNIYPHGITDVRPLYERRLPKGVKHLKDFPILPGEIFKYKWTVTVEDGPTKSDPRCLTRYYSSHVNMERDLASGLIGPLLICYKESVDQRGNQIMSDKRNVILFSVFDENRSWYLTENIQRFLPEPAGVQLEDPEFQASNIMHSINGYVFDSLQLSVCLHEVAYWYILSIGAQTDFLSVFFSGYTFKHKMVYEDTLTLFPFSGETVFMSMENPGNWILGCHNSDFRNRGMTALLKVSSCDKNTGDYYEDSYEDISASLLSKNNAIEPRSFSQNPPVLSKNNAIEPRSFSQNSRHPSLAEAKEAANAELDSYGVSDFYKRLIDKAKTVEGVEALKDAILAALPGSGGSGGSGGSGSGSKNNAIEPRSFSQNSRHPSGSGGSGGSGGSGSLAEAKEAANAELDSYGVSDFYKRLIDKAKTVEGVEALKDAILAALPSKNNAIEPRSFSQNSRHPSQSDQEEIDYDDTISVEMKKEDFDIYDEDENQSPRSFQKKTRHYFIAAVERLWDYGMSSSPHVLRNRAQSGSVPQFKKVVFQEFTDGSFTQPLYRGELNEHLGLLGPYIRAEVEDNIMVTFRNQASRPYSFYSSLISYEEDQRQGAEPRKNFVKPNETKTYFWEVQHHMAPTKDEFDCKAWAYFSDVDLEKDVHSGLIGPLLVCHTNTLNPAHGRQVTVQEFALFFTIFDETKSWYFTENMERNCRAPCNIQMEDPTFKENYRFHAINGYIMDTLPGLVMAQDQRIRWYLLSMGSNENIHSIHFSGHVFTVRKKEEYKMALYNLYPGVFETVEMLPSKAGIWRVECLIGEHLHAGMSTLFLVYSDKCQTPLGMASGHIRDFQITASGQYGQWAPKLARLHYSGGINAWSTKEPFSWIKVDLLAPMIIHGIKTQGARQKFSSLYISQFIIMYSLDGKKWQTYRGNSTGTLMVFFGNVDSSGIKHNIFNPPIIARYIRLHPTHYSIRSTLRMELMGCDLNSCSMPLGMESKAISDAQITASSYFTNMFATWSPSKARLHLQGRSNAWRPQVNNPKEWLQVDFQKTMKVTGVTTQGVKSLLTSMYVKEFLISSSQDGHQWTLFFQNGKVKVFQGNQDSFTPVVNTLDPPLLTRYLRIHPQSWAHQIALRMEVLGCEAQDLYSKNNAIEPRSFSQNSRHPSLAEAKEAANAELDSYGVSDFYKRLIDKAKTVEGVEALKDAILAALPGSGGSGGSGGSGSGSKNNAIEPRSFSQNSRHPSGSGGSGGSGGSGSLAEAKEAANAELDSYGVSDFYKRLIDKAKTVEGVEALKDAILAALP
notes: also called de-immunized FVIII-ABD fusion molecule

binding result: binds
B2: AD2CD2_SC (other)
chain: ATRRYYLGAVELSWDYMQSDLGELPVDARFPPRVPKSFPFNTSVVYKKTLFVEFTDHLFNIAKPRPPWMGLLGPTIQAEVYDTVVITLKNMASHPVSLHAVGVSYWKASEGAEYDDQTSQREKEDDKVFPGGSHTYVWQVLKENGPMASDPLCLTYSYLSHVDLVKDLNSGLIGALLVCREGSLAKEKTQTLHKFILLFAVFDEGKSWHSETKNSLMQDRDAASARAWPKMHTVNGYVNRSLPGLIGCHRKSVYWHVIGMGTTPEVHSIFLEGHTFLVRNHRQASLEISPITFLTAQTLLMDLGQFLLFCHISSHQHDGMEAYVKVDSCPEEPQLRMKNNEEAEDYDDDLTDSEMDVVRFDDDNSPSFIQIRSVAKKHPKTWVHYIAAEEEDWDYAPLVLAPDDRSYKSQYLNNGPQRIGRKYKKVRFMAYTDETFKTREAIQHESGILGPLLYGEVGDTLLIIFKNQASRPYNIYPHGITDVRPLYSRRLPKGVKHLKDFPILPGEIFKYKWTVTVEDGPTKSDPRCLTRYYSSFVNMERDLASGLIGPLLICYKESVDQRGNQIMSDKRNVILFSVFDENRSWYLTENIQRFLPNPAGVQLEDPEFQASNIMHSINGYVFDSLQLSVCLHEVAYWYILSIGAQTDFLSVFFSGYTFKHKMVYEDTLTLFPFSGETVFMSMENPGLWILGCHNSDFRNRGMTALLKVSSCDKNTGDYYEDSYEDISAYLLSKNNAIEPRSFSQNPPVLSKNNAIEPRSFSQNSRHPSLAEAKEAANAELDSYGVSDFYKRLIDKAKTVEGVEALKDAILAALPGSGGSGGSGGSGSGSKNNAIEPRSFSQNSRHPSGSGGSGGSGGSGSLAEAKEAANAELDSYGVSDFYKRLIDKAKTVEGVEALKDAILAALPSKNNAIEPRSFSQNSRHPSQSDQEEIDYDDTISVEMKKEDFDIYDEDENQSPRSFQKKTRHYFIAAVERLWDYGMSSSPHVLRNRAQSGSVPQFKKVVFQEFTDGSFTQPLYRGELNEHLGLLGPYIRAEVEDNIMVTFRNQASRPYSFYSSLISYEEDQRQGAEPRKNFVKPNETKTYFWKVQHHMAPTKDEFDCKAWAYFSDVDLEKDVHSGLIGPLLVCHTNTLNPAHGRQVTVQEFALFFTIFDETKSWYFTENMERNCRAPCNIQMEDPTFKENYRFHAINGYIMDTLPGLVMAQDQRIRWYLLSMGSNENIHSIHFSGHVFTVRKKEEYKMALYNLYPGVFETVEMLPSKAGIWRVECLIGEHLHAGMSTLFLVYSNKCQTPLGMASGHIRDFQITASGQYGQWAPKLARLHYSGSINAWSTKEPFSWIKVDLLAPMIIHGIKTQGARQKFSSLYISQFIIMYSLDGKKWQTYRGNSTGTLMVFFGNVDSSGIKHNIFNPPIIARYIRLHPTHYSIRSTLRMELMGCDLNSCSMPLGMESKAISDAQITASSYFTNMFATWSPSKARLHLQGRSNAWRPQVNNPKEWLQVDFQKTMKVTGVTTQGVKSLLTSMYVKEFLISSSQDGHQWTLFFQNGKVKVFQGNQDSFTPVVNSLDPPLLTRYLRIHPQSWVHQIALRMEVLGCEAQDLYSKNNAIEPRSFSQNSRHPSLAEAKEAANAELDSYGVSDFYKRLIDKAKTVEGVEALKDAILAALPGSGGSGGSGGSGSGSKNNAIEPRSFSQNSRHPSGSGGSGGSGGSGSLAEAKEAANAELDSYGVSDFYKRLIDKAKTVEGVEALKDAILAALP
